Laboratory results published in patent publication US11402384B2 (Duke University, priority 2015, dated 2022).

Key:
[1] = ligand-free protein; SYPRO Orange, Roche LightCycler
Method: Eight homologs that were predicted to be glucose-binding proteins (FIG. 4, Table 3) were selected to probe different degrees of sequence identity to the ttGBP1 seed, and their glucose-binding properties were determined experimentally. These experiments comprised four successive steps: • 1. Synthetic gene construction. The amino acid sequence of the homology leads were backtranslated into DNA sequences. These were optimized for directing heterologous cytoplasmic expression of the protein homologues in E. coli, using either the OrfOpt or OrfMorph programs. These programs predict mRNA sequences that direct high-level protein expression in E. coli. The predicted gene sequences were assembled de novo from synthetic oligonucleotides. • 2. Heterologous protein expression of the homologues in E. coli. Plasmids carrying the synthetic expression constructs (see above) were transformed into KRX competent cells (Promega). Protein production was induced in bacterial cultures of these cultures, as described in the Materials and Methods. • 3. Purification of successfully expressed protein using immobilized metal affinity chromatography. • 4. Verification of glucose binding. Determination of the glucose-binding properties of the purified proteins using a thermal stability shift assay.
Analysis of glucose-binding properties using thermal melts. The thermal stability of purified GBP candidate proteins was determined by measuring the temperature-dependence of the fluorescence signal of an extrinsically added dye, SYPRO, using a Roche LightCycler (Layton and Hellinga, 2010, Biochemistry, 49, 10831-41). The total fluorescence intensity, S, is given by S=βFfF+βUfU 11 where fF and fU are the fractions of protein in the folded and unfolded states, respectively, and βF and βU the fluorescence baselines of these two states. To get the fractions of the two states, we have
[formula] where KU(T) is the temperature-dependent unfolding equilibrium constant, which by the van't Hoff approximation is given by
[formula] Where T is the temperature, Tm, the unfolding reaction transition mid-point temperature, and ΔHU the enthalpy of unfolding.

[2] = Immobilization on Ni-NTA magnetic beads, drying and accelerated aging of sensor; type: physicochemical
Method: The magnetic beads coated with immobilized tsGBP13C_ 244F.Acrylodan were dried by incubation at 50° C. for 20 minutes, using an aqueous ammonium bicarbonate buffer. […] The dried beads were aged in situ inside fully assembled sample-handling cartridges by incubation for up to 7 days at 25° C., 37° C., and 50° C. in the dark. Fluorescence and glucose-responsive properties were tested in cartridges stored for 1, 2 and 7 days. […] The tsGBP2-based FRSs therefore are sufficiently robust to be handled at ambient temperatures in a desiccated state, greatly simplifying manufacturing, distribution, and long-term storage conditions.

Molecule	Thermostability ^apoTm [1] [°C]	stability properties upon rehydration after drying ([2]; beads dried at 50° C. for 20 minutes, determined up to 100° C.)	fluorescence ratio in the absence of glucose and glucose affinities after aging ([2]; dried beads stored 1, 2 and 7 days at 25° C., 37° C., and 50° C. in the dark)	protein stability on beads compared with solution ([2]; immobilized via C-terminal hexa-histidine tag on Ni-NTA magnetic beads, measured up to 100° C.)
ttGBP1: glucose-binding protein from Thermus thermophilus, SEQ ID NO: 9 (protein, ttGBP1 (with signal peptide replaced with M and a HHHHHH at C-terminus)) MKLEIFSWWAGDEGPALEALIRLYKQKYPGVEVINATVTGGAGVNARAVLKTRMLGGDPPDTFQVHAGMELIGTWVVANRMEDLSALFRQEGWLQAFPKGLIDLISYKGGIWSVPVNIHRSNVMWYLPAKLKGWGVNPPRTWDKFLATAQTLKQKGLEAPLALGENWTQQHLWESVALAVLGPDDWNNLWNGKLKFTDPKAVRAWEVFGRVLDAANKDAAGLSWQQAVDRVVQGKAAFNIMGDWAAGYMTTTLKLKPGTDFAWAPSPGTQGVFMMLSDSFGLPKGAKNRQNAINWLRLVGSKEGQDTSNPLKGSIAARLDSDPSKYNAYGQSAMRDWRSNRIVGSLVHGAVAPESFMSQFGTVMEIFLQTRNPQAAANAAQAIADQVGLGRLGQHHHHHH	>100	–	–	–
W244F A: tsGBP2.13C.W244F (SEQ ID NO: 48) Acrylodan conjugate (conjugate, Acrylodan conjugate; tsGBP2.13C.W244F (13C, 244F double substitution mutant with signal peptide replaced with M and a GGSHHHHHH at C-terminus)) MKLEIFSWWAGDCGPALEALIRLYKQKYPGVEVINATVTGGAGVNAKAVLKTRMLGGDPPDTFQVHAGQELIGTWVVADRMEDLTSLFRQEGWLQAFPKGLIDLLSYKGGIWSVPVNIHRSNVMWYIPAKLKEWGVTPPKTWAEFLATAQTLKRKGLEAPLALGENWTQQHLWESVALATLGADGWNNLWSGKLKFTDPKAVAVWETFGKVLDAANKDAAGLSWQQAVDRVVQGKAAFNIMGDFAAGYMSTTLKLKPGTDFAWTPSPGTSGIFMMLSDSFGLPKGAKNRQNAINWLKLVGSKEGQDTFNPLKGSIAARLDSDPAKYNAYGQSAMKDWKSNRIVGSLVHGAVAPESFMSQFGTVMEIFLQSRNPQAAANAAQAIANQVGLGRGGSHHHHHH	–	recovered upon rehydration	remained approximately unchanged	not perturbed
tsGBP2: glucose-binding protein from Thermus scotoductus, SEQ ID NO: 10 (protein, tsGBP2 (with signal peptide replaced with M and a GGSHHHHHH at C-terminus)) MKLEIFSWWAGDEGPALEALIRLYKQKYPGVEVINATVTGGAGVNAKAVLKTRMLGGDPPDTFQVHAGQELIGTWVVADRMEDLTSLFRQEGWLQAFPKGLIDLLSYKGGIWSVPVNIHRSNVMWYIPAKLKEWGVTPPKTWAEFLATAQTLKRKGLEAPLALGENWTQQHLWESVALATLGADGWNNLWSGKLKFTDPKAVAVWETFGKVLDAANKDAAGLSWQQAVDRVVQGKAAFNIMGDWAAGYMSTTLKLKPGTDFAWTPSPGTSGIFMMLSDSFGLPKGAKNRQNAINWLKLVGSKEGQDTFNPLKGSIAARLDSDPAKYNAYGQSAMKDWKSNRIVGSLVHGAVAPESFMSQFGTVMEIFLQSRNPQAAANAAQAIANQVGLGRGGSHHHHHH	>100	–	–	–
dmGBP3: glucose-binding protein from Deinococcus maricopensis, SEQ ID NO: 11 (protein, dmGBP3 (with signal peptide replaced with M and a GGSHHHHHH at C-terminus)) MKLEIFSWWSGDEGPALEALVKLYKQKYPSVDVVNATVAGGAGTNAKAVLKTRMLGGDPPDSFQAHAGQELIGTWVVANRMEDLSSLFKSEGWTTKFPKDLLPLISSKGGIWSVPVNVHRSNVMWYIPANLKKWGVTAPKTWDQFLTTAKTLKTKNVTPLALGENWTQQHLWESVAVGTLGAQGWQNLWSGKLKFTDPKVVKVWDTFGKVLDATNKDASGLSWQQATDRVVNGQAAFNIMGDWAAGYLSTTKKLKPGTGFGWAPSPSTSGTFIFLADSFGLPKGAKDRAEALSWLKLLGSKQGQDTFNPLKGSIAARVDSDLSKYSTYSQSAAKDWKSNKIVGSLTHGAVAPESFTSTFGTVIDAFVASRNAQVAAATTQQLADKAGLGKGGSHHHHHH	47	–	–	–
